In patent publication US20250186597A1, “TARGETED IMMUNE ACTIVATION WITH IL-18 IMMUNOCYTOKINES” (BRIGHT PEAK THERAPEUTICS AG, priority 2023, published 2025):

Assays:
Assay in all cases: cell-based or functional assay
[1] = target: IL-18 polypeptide of SEQ ID NO: 53 (K53A, T63A) (human) (UniProt Q14116)
[2] = target: IL-18 polypeptide C165 (V11I, C38A, S55R, C76A, C127A) (human) (UniProt Q14116)
[3] = target: IL-18 polypeptide C156 (V11I, C38A, N41A, K53A, C76A, C127A) (human) (UniProt Q14116)
[4] = target: IL-18 polypeptide C146 (SEQ ID NO: 68; V11I, C38A, M51G, K53A, C76A, C127A) (human) (UniProt Q14116)
[5] = target: IL-18 polypeptide C157 (V11I, C38A, K53A, C76A, C127A, D132A) (human) (UniProt Q14116)
[6] = target: IL-18 polypeptide of SEQ ID NO: 35 (Y01G, F02A, E06K, M51G, K53A, D54A, S55A, T63A) (human) (UniProt Q14116)
[7] = target: IL-18 polypeptide C144 (V11I, C38A, K53A, T63A, C76A, C127A) (human) (UniProt Q14116)
[8] = target: IL-18 polypeptide C168 (V11I, C38A, C76A, S105K, C127A) (human) (UniProt Q14116)
[9] = target: IL-18 polypeptide of SEQ ID NO: 41 (K53A, S55A) (human) (UniProt Q14116)
[10] = target: IL-18 polypeptide of SEQ ID NO: 48 (C38S, C68S, C76S, C127S, K70C) (human) (UniProt Q14116)
[11] = target: IL-18 polypeptide of SEQ ID NO: 60 (E6K, C38Q, K53A) (human) (UniProt Q14116)
[12] = target: IL-18 polypeptide C161 (K8R, V11I, C38A, C76A, Q103E, C127A) (human) (UniProt Q14116)
[13] = target: IL-18 polypeptide of SEQ ID NO: 62 (E6K, C38A, K53A, C127A) (human) (UniProt Q14116)
[14] = target: IL-18 polypeptide C143 (V11I, C38A, K53A, C76A, C127A) (human) (UniProt Q14116)
[15] = target: IL-18 polypeptide C145 (V11I, C38A, K53A, S55A, C76A, C127A) (human) (UniProt Q14116)
[16] = target: IL-18 polypeptide of SEQ ID NO: 37 (S55A) (human) (UniProt Q14116)
[17] = target: IL-18 polypeptide of SEQ ID NO: 51 (T63A) (human) (UniProt Q14116)
[18] = target: IL-18 polypeptide C147 (V11I, C38A, K53A, D54A, C76A, C127A) (human) (UniProt Q14116)
[19] = target: IL-18 polypeptide of SEQ ID NO: 47 (C38S, C68S, C76S, C127S) (human) (UniProt Q14116)
[20] = target: IL-18 polypeptide of SEQ ID NO: 6 (E6K, V11I, C38A, K53A, T63A, C68A, C76A, D98C, C127A) (human) (UniProt Q14116)
[21] = target: IL-18 polypeptide C160 (V11I, C38A, K53A, C76A, D110A, C127A) (human) (UniProt Q14116)
[22] = target: IL-18 polypeptide C154 (V11I, E31A, D37A, C38A, K53A, C76A, C127A) (human) (UniProt Q14116)
IL-18 polypeptide C154 (V11I, E31A, D37A, C38A, K53A, C76A, C127A) (human), sequence (Q14116 37-193 V47I/E67A/D73A/C74A/K89A/C112A/C163A): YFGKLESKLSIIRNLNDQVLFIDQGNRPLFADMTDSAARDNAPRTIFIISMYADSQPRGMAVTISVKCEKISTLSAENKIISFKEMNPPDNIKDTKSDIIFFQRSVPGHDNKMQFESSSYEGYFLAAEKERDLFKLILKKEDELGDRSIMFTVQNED

IL-18 polypeptide C145 (V11I, C38A, K53A, S55A, C76A, C127A) (human), sequence (Q14116 37-193 V47I/C74A/K89A/S91A/C112A/C163A): as the sequence (Q14116 37-193 V47I/E67A/D73A/C74A/K89A/C112A/C163A) above, with A31E, A37D, S55A counted along it
IL-18 polypeptide C160 (V11I, C38A, K53A, C76A, D110A, C127A) (human), sequence (Q14116 37-193 V47I/C74A/K89A/C112A/D146A/C163A): as the sequence (Q14116 37-193 V47I/E67A/D73A/C74A/K89A/C112A/C163A) above, with A31E, A37D, D110A counted along it
IL-18 polypeptide of SEQ ID NO: 53 (K53A, T63A) (human), sequence (Q14116 37-193 K89A/T99A): as the sequence (Q14116 37-193 V47I/E67A/D73A/C74A/K89A/C112A/C163A) above, with I11V, A31E, A37D, A38C, T63A, A76C, A127C counted along it
IL-18 polypeptide C157 (V11I, C38A, K53A, C76A, C127A, D132A) (human), sequence (Q14116 37-193 V47I/C74A/K89A/C112A/C163A/D168A): as the sequence (Q14116 37-193 V47I/E67A/D73A/C74A/K89A/C112A/C163A) above, with A31E, A37D, D132A counted along it
IL-18 polypeptide of SEQ ID NO: 35 (Y01G, F02A, E06K, M51G, K53A, D54A, S55A, T63A) (human), sequence (Q14116 37-193 Y37G/F38A/E42K/M87G/K89A/D90A/S91A/T99A): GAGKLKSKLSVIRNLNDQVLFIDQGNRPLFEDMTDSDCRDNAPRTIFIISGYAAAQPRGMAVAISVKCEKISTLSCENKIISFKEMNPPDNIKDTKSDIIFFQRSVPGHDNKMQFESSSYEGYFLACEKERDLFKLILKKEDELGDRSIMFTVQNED
IL-18 polypeptide of SEQ ID NO: 51 (T63A) (human), sequence (Q14116 37-193 T99A): as the sequence (Q14116 37-193 Y37G/F38A/E42K/M87G/K89A/D90A/S91A/T99A) above, with G1Y, A2F, K6E, G51M, A53K, A54D, A55S counted along it
IL-18 polypeptide of SEQ ID NO: 62 (E6K, C38A, K53A, C127A) (human), sequence (Q14116 other isoform, or with tags, fused parts or gaps C38A K53A C127A C38A K53A C127A): as the sequence (Q14116 37-193 V47I/E67A/D73A/C74A/K89A/C112A/C163A) above, with E6K, I11V, A31E, A37D, A76C counted along it
IL-18 polypeptide of SEQ ID NO: 60 (E6K, C38Q, K53A) (human), sequence (Q14116 other isoform, or with tags, fused parts or gaps C38Q K53A C38Q K53A): as the sequence (Q14116 37-193 Y37G/F38A/E42K/M87G/K89A/D90A/S91A/T99A) above, with G1Y, A2F, C38Q, G51M, A54D, A55S, A63T counted along it
IL-18 polypeptide of SEQ ID NO: 41 (K53A, S55A) (human), sequence (Q14116 37-193 K89A/S91A): as the sequence (Q14116 37-193 Y37G/F38A/E42K/M87G/K89A/D90A/S91A/T99A) above, with G1Y, A2F, K6E, G51M, A54D, A63T counted along it
IL-18 polypeptide C147 (V11I, C38A, K53A, D54A, C76A, C127A) (human), sequence (Q14116 37-193 V47I/C74A/K89A/D90A/C112A/C163A): as the sequence (Q14116 37-193 V47I/E67A/D73A/C74A/K89A/C112A/C163A) above, with A31E, A37D, D54A counted along it
IL-18 polypeptide C146 (SEQ ID NO: 68; V11I, C38A, M51G, K53A, C76A, C127A) (human), sequence (Q14116 37-193 V47I/C74A/M87G/K89A/C112A/C163A): as the sequence (Q14116 37-193 V47I/E67A/D73A/C74A/K89A/C112A/C163A) above, with A31E, A37D, M51G counted along it
IL-18 polypeptide C161 (K8R, V11I, C38A, C76A, Q103E, C127A) (human), sequence (Q14116 other isoform, or with tags, fused parts or gaps V11I C38A C76A Q103E C127A V11I C38A C76A Q103E C127A): as the sequence (Q14116 37-193 V47I/E67A/D73A/C74A/K89A/C112A/C163A) above, with K8R, A31E, A37D, A53K, Q103E counted along it
IL-18 polypeptide C156 (V11I, C38A, N41A, K53A, C76A, C127A) (human), sequence (Q14116 37-193 V47I/C74A/N77A/K89A/C112A/C163A): as the sequence (Q14116 37-193 V47I/E67A/D73A/C74A/K89A/C112A/C163A) above, with A31E, A37D, N41A counted along it
IL-18 polypeptide of SEQ ID NO: 37 (S55A) (human), sequence (Q14116 37-193 S91A): as the sequence (Q14116 37-193 Y37G/F38A/E42K/M87G/K89A/D90A/S91A/T99A) above, with G1Y, A2F, K6E, G51M, A53K, A54D, A63T counted along it
IL-18 polypeptide of SEQ ID NO: 47 (C38S, C68S, C76S, C127S) (human), sequence (Q14116 37-193 C74S/C104S/C112S/C163S): as the sequence (Q14116 37-193 V47I/E67A/D73A/C74A/K89A/C112A/C163A) above, with I11V, A31E, A37D, A38S, A53K, C68S, A76S, A127S counted along it
IL-18 polypeptide C168 (V11I, C38A, C76A, S105K, C127A) (human), sequence (Q14116 37-193 V47I/C74A/C112A/S141K/C163A): as the sequence (Q14116 37-193 V47I/E67A/D73A/C74A/K89A/C112A/C163A) above, with A31E, A37D, A53K, S105K counted along it
IL-18 polypeptide of SEQ ID NO: 6 (E6K, V11I, C38A, K53A, T63A, C68A, C76A, D98C, C127A) (human), sequence (Q14116 other isoform, or with tags, fused parts or gaps with the stated changes): as the sequence (Q14116 37-193 V47I/E67A/D73A/C74A/K89A/C112A/C163A) above, with E6K, A31E, A37D, T63A, C68A, D98C counted along it
IL-18 polypeptide C165 (V11I, C38A, S55R, C76A, C127A) (human), sequence (Q14116 37-193 V47I/C74A/S91R/C112A/C163A): as the sequence (Q14116 37-193 V47I/E67A/D73A/C74A/K89A/C112A/C163A) above, with A31E, A37D, A53K, S55R counted along it
IL-18 polypeptide C143 (V11I, C38A, K53A, C76A, C127A) (human), sequence (Q14116 37-193 V47I/C74A/K89A/C112A/C163A): as the sequence (Q14116 37-193 V47I/E67A/D73A/C74A/K89A/C112A/C163A) above, with A31E, A37D counted along it
IL-18 polypeptide of SEQ ID NO: 48 (C38S, C68S, C76S, C127S, K70C) (human), sequence (Q14116 37-193 C74S/C104S/K106C/C112S/C163S): as the sequence (Q14116 37-193 V47I/E67A/D73A/C74A/K89A/C112A/C163A) above, with I11V, A31E, A37D, A38S, A53K, C68S, K70C, A76S, A127S counted along it
IL-18 polypeptide C144 (V11I, C38A, K53A, T63A, C76A, C127A) (human), sequence (Q14116 37-193 V47I/C74A/K89A/T99A/C112A/C163A): as the sequence (Q14116 37-193 V47I/E67A/D73A/C74A/K89A/C112A/C163A) above, with A31E, A37D, T63A counted along it

For “Fc fused human IL-18 binding protein isoform a (IL-18BPa; R&D systems, Cat #119-BP) (from UniProt O95998 31-194) (Fc fusion)”, the IC50 of inhibition by IL-18BP of IFNγ stimulation in NK92 cells [1] was 18.2 nM, the IC50 of inhibition by IL-18BP of IFNγ stimulation in NK92 cells [2] was 0.885 nM and the IC50 of inhibition by IL-18BP of IFNγ stimulation in NK92 cells [3] was 0.681 nM. For the same substance, the IC50 of inhibition by IL-18BP of IFNγ stimulation in NK92 cells [4] was 733 nM, the IC50 of inhibition by IL-18BP of IFNγ stimulation in NK92 cells [5] was 6.08 nM and the IC50 of inhibition by IL-18BP of IFNγ stimulation in NK92 cells [6] was greater than 55 nM. The IC50 of inhibition by IL-18BP of IFNγ stimulation in NK92 cells [7] was 7.52 nM, the IC50 of inhibition by IL-18BP of IFNγ stimulation in NK92 cells [8] was 0.176 nM and the IC50 of inhibition by IL-18BP of IFNγ stimulation in NK92 cells [9] was 37.3 nM. The IC50 of inhibition by IL-18BP of IFNγ stimulation in NK92 cells [10] was 0.114 nM, the IC50 of inhibition by IL-18BP of IFNγ stimulation in NK92 cells [11] was 780 nM and the IC50 of inhibition by IL-18BP of IFNγ stimulation in NK92 cells [12] was 1.07 nM. It also gave an IC50 of inhibition by IL-18BP of IFNγ stimulation in NK92 cells [13] of 284 nM, an IC50 of inhibition by IL-18BP of IFNγ stimulation in NK92 cells [14] of 1.62 nM and an IC50 of inhibition by IL-18BP of IFNγ stimulation in NK92 cells [15] of 10.2 nM. For the same substance, the IC50 of inhibition by IL-18BP of IFNγ stimulation in NK92 cells [16] was 4.46 nM, the IC50 of inhibition by IL-18BP of IFNγ stimulation in NK92 cells [17] was 0.239 nM and the IC50 of inhibition by IL-18BP of IFNγ stimulation in NK92 cells [18] was 47.6 nM. The IC50 of inhibition by IL-18BP of IFNγ stimulation in NK92 cells [19] was 0.444 nM, the IC50 of inhibition by IL-18BP of IFNγ stimulation in NK92 cells [20] was 5.85 nM and the IC50 of inhibition by IL-18BP of IFNγ stimulation in NK92 cells [21] was 3.18 nM. It also gave an IC50 of inhibition by IL-18BP of IFNγ stimulation in NK92 cells [22] of 3.71 nM.
